Here are results for 17 substances from doi:10.1101/2022.05.10.491349.

Holding throughout (assay): SEC
For assay [1], the target named is SARS-CoV-2 Nsp15 L163F (SARS-CoV-2).
Assay [2] deals with SARS-CoV-2 Nsp15 K260R (SARS-CoV-2).
The target in assay [3] is SARS-CoV-2 Nsp15 K13N (SARS-CoV-2).
The target in assay [4] is SARS-CoV-2 Nsp15 T34I (SARS-CoV-2).
In assay [5] the target is SARS-CoV-2 Nsp15 K290N (SARS-CoV-2).
The target in assay [6] is SARS-CoV-2 Nsp15 W333C (SARS-CoV-2).
Assay [7] deals with SARS-CoV-2 Nsp15 D133Y (SARS-CoV-2).
Assay [8] concerns the target SARS-CoV-2 Nsp15 V128F (SARS-CoV-2).
The target of assay [9] is SARS-CoV-2 Nsp15 P206S (SARS-CoV-2).
Assay [10] deals with SARS-CoV-2 Nsp15 D220Y (SARS-CoV-2).
Assay [11] concerns the target SARS-CoV-2 Nsp15 G18E (SARS-CoV-2).
The target of assay [12] is SARS-CoV-2 Nsp15 A93S (SARS-CoV-2).
The target in assay [13] is SARS-CoV-2 Nsp15 H235Y (SARS-CoV-2).
Assay [14] concerns the target SARS-CoV-2 Nsp15 K13R (SARS-CoV-2).
Assay [15] deals with SARS-CoV-2 Nsp15 T115A (SARS-CoV-2).
The target in assay [16] is SARS-CoV-2 Nsp15 G18R (SARS-CoV-2).
The target of assay [17] is SARS-CoV-2 Nsp15 R207S (SARS-CoV-2).

For SARS-CoV-2 Nsp15 L163F (enzyme), the Hex/Mono Ratio in [1] stood at 0.23.
Take SARS-CoV-2 Nsp15 K260R (enzyme): in [2], the Hex/Mono Ratio is 1.8.
With SARS-CoV-2 Nsp15 K13N (enzyme), the Hex/Mono Ratio in assay [3] came to 0.63.
Consider SARS-CoV-2 Nsp15 T34I (enzyme), for which the Hex/Mono Ratio in assay [4] came to 1.01.
In the case of SARS-CoV-2 Nsp15 K290N (enzyme), in assay [5], the Hex/Mono Ratio was determined as 2.12.
Regarding SARS-CoV-2 Nsp15 W333C (enzyme), the Hex/Mono Ratio in assay [6] is 0.77.
On to SARS-CoV-2 Nsp15 D133Y (enzyme), for which the Hex/Mono Ratio in [7] is 0.48.
On to SARS-CoV-2 Nsp15 V128F (enzyme), for which the Hex/Mono Ratio in assay [8] is 0.5.
Consider SARS-CoV-2 Nsp15 P206S (enzyme), for which the Hex/Mono Ratio in assay [9] stood at 2.49.
For the substance SARS-CoV-2 Nsp15 D220Y (enzyme), the Hex/Mono Ratio in assay [10] is 0.63.
Turning to SARS-CoV-2 Nsp15 G18E (enzyme), the Hex/Mono Ratio in [11] came to 0.56.
Consider SARS-CoV-2 Nsp15 A93S (enzyme), for which, in [12], the Hex/Mono Ratio worked out at 0.49.
SARS-CoV-2 Nsp15 H235Y (enzyme): the Hex/Mono Ratio in assay [13] was determined as 1.61.
On to SARS-CoV-2 Nsp15 K13R (enzyme), for which the Hex/Mono Ratio in assay [14] was 1.18.
For the substance SARS-CoV-2 Nsp15 T115A (enzyme), the Hex/Mono Ratio in assay [15] was determined as 0.55.
In the case of SARS-CoV-2 Nsp15 G18R (enzyme), in assay [16], the Hex/Mono Ratio was determined as 0.88.
Regarding SARS-CoV-2 Nsp15 R207S (enzyme), in assay [17], the Hex/Mono Ratio was found to be 0.14.
